Source: publication PMC8570598

Target: Rat tail collagen-I (polymerized fibrillar collagen type I) (rat) (UniProt P02454)
Test: FRAP

Chain of UniProt P02454 (P02454 152-1207, chain 1 of 2): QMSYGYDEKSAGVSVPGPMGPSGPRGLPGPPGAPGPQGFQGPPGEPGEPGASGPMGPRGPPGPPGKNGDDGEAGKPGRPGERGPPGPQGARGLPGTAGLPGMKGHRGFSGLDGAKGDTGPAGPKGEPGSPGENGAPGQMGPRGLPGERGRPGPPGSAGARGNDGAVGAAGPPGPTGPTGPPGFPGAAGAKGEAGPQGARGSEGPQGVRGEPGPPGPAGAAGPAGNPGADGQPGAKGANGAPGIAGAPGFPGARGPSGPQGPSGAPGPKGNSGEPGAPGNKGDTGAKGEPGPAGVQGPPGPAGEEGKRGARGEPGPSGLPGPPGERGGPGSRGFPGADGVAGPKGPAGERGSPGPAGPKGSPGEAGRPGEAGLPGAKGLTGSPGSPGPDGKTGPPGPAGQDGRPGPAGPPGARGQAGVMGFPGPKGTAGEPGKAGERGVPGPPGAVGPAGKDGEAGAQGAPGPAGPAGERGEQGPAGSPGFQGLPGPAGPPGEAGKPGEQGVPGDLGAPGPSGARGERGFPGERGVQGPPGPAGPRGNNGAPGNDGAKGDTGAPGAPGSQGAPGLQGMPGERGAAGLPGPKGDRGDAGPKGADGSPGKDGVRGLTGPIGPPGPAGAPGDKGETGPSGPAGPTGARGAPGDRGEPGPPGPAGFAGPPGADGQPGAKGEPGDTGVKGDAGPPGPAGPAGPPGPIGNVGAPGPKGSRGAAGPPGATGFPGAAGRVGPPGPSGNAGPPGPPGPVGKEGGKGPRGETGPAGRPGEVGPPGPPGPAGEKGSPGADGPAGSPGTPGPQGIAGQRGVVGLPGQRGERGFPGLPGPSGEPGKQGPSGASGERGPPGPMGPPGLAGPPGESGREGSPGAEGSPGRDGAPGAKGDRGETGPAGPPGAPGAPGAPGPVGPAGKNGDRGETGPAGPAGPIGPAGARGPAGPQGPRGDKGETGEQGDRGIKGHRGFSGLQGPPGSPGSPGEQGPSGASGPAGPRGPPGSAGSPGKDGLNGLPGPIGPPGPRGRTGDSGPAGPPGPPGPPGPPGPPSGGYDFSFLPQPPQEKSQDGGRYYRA
Chain of UniProt P02454 (P02466 86-1125, chain 2 of 2, further chain): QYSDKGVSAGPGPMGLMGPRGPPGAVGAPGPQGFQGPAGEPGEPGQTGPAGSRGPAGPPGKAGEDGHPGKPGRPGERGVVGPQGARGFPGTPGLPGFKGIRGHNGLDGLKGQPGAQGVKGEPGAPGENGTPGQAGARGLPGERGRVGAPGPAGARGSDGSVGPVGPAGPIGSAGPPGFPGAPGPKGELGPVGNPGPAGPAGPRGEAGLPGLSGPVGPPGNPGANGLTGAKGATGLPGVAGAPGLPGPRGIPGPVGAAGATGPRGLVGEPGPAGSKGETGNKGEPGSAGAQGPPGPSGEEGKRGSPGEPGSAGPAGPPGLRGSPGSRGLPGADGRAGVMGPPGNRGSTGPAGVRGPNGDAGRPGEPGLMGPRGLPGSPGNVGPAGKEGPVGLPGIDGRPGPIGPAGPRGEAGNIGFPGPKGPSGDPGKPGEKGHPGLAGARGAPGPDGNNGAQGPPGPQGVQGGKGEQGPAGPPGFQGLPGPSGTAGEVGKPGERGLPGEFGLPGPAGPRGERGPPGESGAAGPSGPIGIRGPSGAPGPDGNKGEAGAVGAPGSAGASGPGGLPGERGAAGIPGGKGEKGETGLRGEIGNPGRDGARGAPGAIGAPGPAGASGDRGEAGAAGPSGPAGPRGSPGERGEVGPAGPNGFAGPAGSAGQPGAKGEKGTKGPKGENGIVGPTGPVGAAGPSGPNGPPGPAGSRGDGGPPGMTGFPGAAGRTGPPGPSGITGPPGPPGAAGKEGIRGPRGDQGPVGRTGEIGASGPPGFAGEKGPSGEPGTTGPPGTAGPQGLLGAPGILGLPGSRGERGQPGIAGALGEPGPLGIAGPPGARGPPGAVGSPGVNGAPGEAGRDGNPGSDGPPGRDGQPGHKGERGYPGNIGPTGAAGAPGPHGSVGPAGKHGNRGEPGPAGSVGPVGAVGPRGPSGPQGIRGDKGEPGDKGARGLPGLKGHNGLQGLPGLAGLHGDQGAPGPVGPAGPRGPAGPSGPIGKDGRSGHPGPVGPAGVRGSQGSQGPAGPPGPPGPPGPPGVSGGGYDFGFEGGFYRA

Alexa488-labeled epidermal growth factor (EGF) (ligand)
mobile fraction (FRAP, free Alexa488-EGF in the medium): 50%
